Six molecules from US20050214802A1 (Genentech, published 2005) can be followed below.

In experiment [1] the target is ΔCARD human caspase 9 (lacking the first 138 residues) with Ala substitutions at residues 304 to 306 (human) (UniProt P55211). The experiment can be described thus: Ki(app), inhibition of ΔCARD caspase-9 hydrolysis of Ac-LEHD-AFC; too low to measure accurately.
Experiment [2] has the same target. The experiment in a line: Ki(app), inhibition of ΔCARD caspase-9 hydrolysis of Ac-LEHD-AFC.
For experiment [3] the target is unchanged. The experiment in a line: caspase-9 inhibition assay, ratio of Ki(app).
Experiment [4] shares this target. The experiment in a line: Ki(app), caspase-9 inhibition; lower end tied by Table 7 to full-length ML-IAP (3,200 nM).
The target is the same in experiment [5]. The experiment in a line: caspase-9 inhibition assay, ratio of Ki(app). This is another data set of the same source.
Experiment [6] shares this target. The experiment in a line: Ki(app), caspase-9 inhibition; upper end tied by Table 7 to MLBIR-Q (4,600 nM).
Experiment [7] deals with T1, caspase-9 zymogen precursor (overexpressed in 293T cells) (UniProt P55211 1-416).
T1 sequence (looked up): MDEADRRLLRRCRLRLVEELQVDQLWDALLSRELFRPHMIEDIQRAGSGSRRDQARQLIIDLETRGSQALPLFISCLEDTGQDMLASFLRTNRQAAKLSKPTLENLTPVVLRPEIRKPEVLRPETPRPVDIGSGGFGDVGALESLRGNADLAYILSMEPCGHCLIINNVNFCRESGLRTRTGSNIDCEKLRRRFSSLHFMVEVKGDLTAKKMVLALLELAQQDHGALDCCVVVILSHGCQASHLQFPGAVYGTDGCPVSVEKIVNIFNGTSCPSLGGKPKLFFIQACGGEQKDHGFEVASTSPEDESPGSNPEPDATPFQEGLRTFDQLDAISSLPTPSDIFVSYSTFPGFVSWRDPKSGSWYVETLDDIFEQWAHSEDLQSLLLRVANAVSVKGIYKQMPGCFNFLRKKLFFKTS
The experiment in a line: co-immunoprecipitation (anti-Flag) from 293T lysates, Western blot with anti-caspase-9. How it is done: 293T cells were transiently transfected with caspase-9 and Flag-tagged BIR domain proteins or vector. After 40 h, cells were lysed in NP40 lysis buffer (120 mM Tris, 150 mM NaCl, 1% NP-40, 1 mM DTT and protease inhibitor cocktail) and lysates immunoprecipitated (IP) with anti-Flag antibody. Samples were then Western blotted with anti-caspase-9 and anti-Flag antibodies. […] When overexpressed, caspase-9 undergoes autocatalytic processing and it is the processed form that physically interacts with XIAP and ML-IAP BIR domains.
(Immunoblotting shows a protein as a band on a membrane.)

Turning to “MLXBIR3SG (ML-IAP chimera: ML-IAP-BIR framework with XIAP-BIR3 residues 336-348 in place of 160-179 and S150G)”, in experiment [1], the Ki was less than 1 nM.

Take “XIAP-BIR3 (third BIR of XIAP, residues 252-348) (from UniProt P98170 252-348)”: the Ki in experiment [2] is 13 nM.

Consider “MLXBIR3 (ML-IAP-BIR with amino acids 160-179 replaced by amino acids 336-348 of XIAP-BIR3) (from UniProt Q96CA5 63-159; P98170 336-348)”, for which, in experiment [3], the fold better at inhibiting caspase-9 than MLBIR-Q stood at 5 fold and the fold less potent at inhibiting caspase-9 than XIAP-BIR3 turned out to be 70 fold. This molecule also registered a Ki in experiment [2] of 962 nM.

B1: full-length ML-IAP with N-terminal His6-tag (protein, human, UniProt Q96CA5 1-298, looked up, not shown: small tags and cut ends)
chain: MGPKDSAKCLHRGPQPSHWAAGDGPTQERCGPRSLGSPVLGLDTCRAWDHVDGQILGQLRPLTEEEEEEGAGATLSRGPAFPGMGSEELRLASFYDWPLTAEVPPELLAAAGFFHTGHQDKVRCFFCYGGLQSWKRGDDPWTEHAKWFPSCQFLLRSKGRDFVHSVQETHSQLLGSWDPWEEPEDAAPVAPSVPASGYPELPTPRREVQSESAQEPGGVSPAEAQRAWWVLEPPGARDVEAQLRRLQEERTCKVCLDRAVSIVFVPCGHLVCAECAPGLQLCPICRAPVRSRVRTFLS
Consider B1, for which the Ki is 3000 to 5000 nM in experiment [4] and 3200 nM in experiment [2]. Moreover, the fold lower potency for inhibition of caspase-9 relative to XIAP in experiment [5] worked out at 300 fold.

B2: MLBIR-Q (C-terminally truncated variant of ML-IAP-BIR) (protein, human, UniProt Q96CA5 63-172, looked up, not shown: small tags and cut ends)
chain: TEEEEEEGAGATLSRGPAFPGMGSEELRLASFYDWPLTAEVPPELLAAAGFFHTGHQDKVRCFFCYGGLQSWKRGDDPWTEHAKWFPSCQFLLRSKGRDFVHSVQETHSQ
For the molecule B2, the Ki is 3000 to 5000 nM in experiment [6] and 4600 nM in experiment [2].

B3: Flag-tagged ML-IAP-BIR (expressed in 293T cells) (other, human, UniProt Q96CA5 63-179, looked up)
chain: TEEEEEEGAGATLSRGPAFPGMGSEELRLASFYDWPLTAEVPPELLAAAGFFHTGHQDKVRCFFCYGGLQSWKRGDDPWTEHAKWFPSCQFLLRSKGRDFVHSVQETHSQLLGSWDP
notes: domain: BIR; also called MLBIR; wild-type ML-IAP-BIR; not shown: Flag tag
On to B3, for which the binding result in experiment [7] is reported as “no binding”.
